What all share (assay): co-IP, anti-FLAG, lysate of cells with C-FLAG B3GNT2; mass spectrometry
One experiment concerns the target T1, CAT (human, UniProt P04040 2-527).
T1 construct: also called NP_001743.1
T1 sequence (looked up): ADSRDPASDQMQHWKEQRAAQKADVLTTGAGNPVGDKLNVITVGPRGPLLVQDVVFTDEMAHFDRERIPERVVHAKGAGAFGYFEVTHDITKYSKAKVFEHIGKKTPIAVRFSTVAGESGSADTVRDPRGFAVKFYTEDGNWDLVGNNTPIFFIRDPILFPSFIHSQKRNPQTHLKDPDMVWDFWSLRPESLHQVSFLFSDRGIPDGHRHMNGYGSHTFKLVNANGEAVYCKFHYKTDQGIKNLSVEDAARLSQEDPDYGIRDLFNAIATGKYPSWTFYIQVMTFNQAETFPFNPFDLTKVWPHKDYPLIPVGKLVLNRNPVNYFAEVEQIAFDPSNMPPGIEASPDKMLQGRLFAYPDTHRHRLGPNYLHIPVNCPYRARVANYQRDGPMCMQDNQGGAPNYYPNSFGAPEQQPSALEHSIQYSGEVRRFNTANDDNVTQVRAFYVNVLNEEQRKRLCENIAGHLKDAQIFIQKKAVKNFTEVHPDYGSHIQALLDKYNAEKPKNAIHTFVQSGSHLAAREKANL
The protocol:
(§1) Cells were plated in 10-cm cell culture dishes and grown to 60-80% confluency. For each condition, two biological replicates were harvested for co-IP. Cells were washed with PBS and 4 mL of lysis buffer (20 mM HEPES, 1% Triton X-100, 150 mM NaCl, 1 mM EDTA, and 10% glycerol) containing protease inhibitor cocktail was added. Cells were scraped and lysate was incubated at 4° C. under rotary agitation for 1 h. Lysate was centrifuged at 14,000×g for 10 min at 4° C. Supernatant was transferred to a new tube and an aliquot was taken as the input. […] For Western blots, 10 μg/mL Chicken Anti-FLAG (Aves labs ET-DY100) and IgY control (R&D Systems AB-101-C) antibodies were biotinylated (Thermo Fisher Scientific 90407) and added to the respective conditions. Lysates with antibodies were incubated at 4° C. under rotary agitation overnight. For each mL of lysate, 50 μL of Pierce Protein A/G Magnetic Beads (Mass spectrometry; Thermo Fisher Scientific 88803) or Pierce Streptavidin Magnetic Beads (Western blot; Thermo Fisher Scientific 88817) was washed twice with lysis buffer. Lysates with antibodies were added to the beads and incubated at 4° C. under rotary agitation for 4 h. Beads were washed with lysis buffer 3 times and resuspended in lysis buffer for storage.
(§2) Magnetic beads were resuspended in 100 mM Tris pH 7.8, reduced, alkylated and digested with trypsin at 37° ° C. overnight. This solution was subjected to solid phase extraction to concentrate the peptides and remove unwanted reagents followed by injection onto a Shimadzu HPLC with fraction collector. Eight fractions were collected and after concentration were injected on a Waters NanoAcquity HPLC equipped with a self-packed Aeris 3 μm C18 analytical column 0.075 mm by 20 cm, (Phenomenex). Peptides were eluted using standard reverse-phase gradients. The effluent from the column was analyzed using a Thermo Orbitrap Elite mass spectrometer (nanospray configuration) operated in a data dependent manner for 54 minutes. The resulting fragmentation spectra were correlated against the known database using Proteome Discover 1.4 (Thermo Fisher Scientific).

Another experiment deals with RPS3 (human, UniProt P23396 2-243). Here is the method:
as §1, §2

A further experiment deals with T2, C1orf68 (human, UniProt Q5T750 1-250).
T2 construct: also called NP_001019850.1
T2 sequence (Q5T750 whole entry): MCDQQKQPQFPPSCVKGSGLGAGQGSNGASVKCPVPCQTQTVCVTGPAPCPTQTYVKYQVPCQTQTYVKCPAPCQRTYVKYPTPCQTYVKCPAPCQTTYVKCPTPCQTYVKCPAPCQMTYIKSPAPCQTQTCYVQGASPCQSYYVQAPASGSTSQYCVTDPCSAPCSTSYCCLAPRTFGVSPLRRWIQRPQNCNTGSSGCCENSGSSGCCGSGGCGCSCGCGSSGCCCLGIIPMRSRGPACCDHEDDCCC
The protocol: as §1, §2

A further experiment deals with T3, LMNA (human, UniProt P02545 1-646, limits assumed).
T3 construct: also called NP_733821.1
T3 sequence (looked up): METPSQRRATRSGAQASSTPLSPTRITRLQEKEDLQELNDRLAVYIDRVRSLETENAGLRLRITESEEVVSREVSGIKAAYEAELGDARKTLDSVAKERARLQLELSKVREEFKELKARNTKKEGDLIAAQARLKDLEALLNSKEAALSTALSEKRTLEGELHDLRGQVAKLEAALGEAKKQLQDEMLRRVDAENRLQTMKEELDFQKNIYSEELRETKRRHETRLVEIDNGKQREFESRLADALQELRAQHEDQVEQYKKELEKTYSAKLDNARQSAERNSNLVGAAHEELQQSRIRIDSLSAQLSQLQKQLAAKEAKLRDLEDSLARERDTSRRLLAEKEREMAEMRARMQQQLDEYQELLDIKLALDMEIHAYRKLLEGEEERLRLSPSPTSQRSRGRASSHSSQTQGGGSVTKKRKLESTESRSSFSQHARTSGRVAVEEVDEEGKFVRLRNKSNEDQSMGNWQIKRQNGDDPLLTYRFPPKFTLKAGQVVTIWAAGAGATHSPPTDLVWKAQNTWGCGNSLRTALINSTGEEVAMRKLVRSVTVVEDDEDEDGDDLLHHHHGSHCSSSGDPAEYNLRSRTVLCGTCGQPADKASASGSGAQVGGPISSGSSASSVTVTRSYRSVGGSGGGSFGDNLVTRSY
Here is the method: as §1, §2

The next experiment deals with T4, G3BP1 (human, UniProt Q13283 2-466).
T4 construct: also called NP_005745.1
T4 sequence (Q13283 2-466 limits assumed): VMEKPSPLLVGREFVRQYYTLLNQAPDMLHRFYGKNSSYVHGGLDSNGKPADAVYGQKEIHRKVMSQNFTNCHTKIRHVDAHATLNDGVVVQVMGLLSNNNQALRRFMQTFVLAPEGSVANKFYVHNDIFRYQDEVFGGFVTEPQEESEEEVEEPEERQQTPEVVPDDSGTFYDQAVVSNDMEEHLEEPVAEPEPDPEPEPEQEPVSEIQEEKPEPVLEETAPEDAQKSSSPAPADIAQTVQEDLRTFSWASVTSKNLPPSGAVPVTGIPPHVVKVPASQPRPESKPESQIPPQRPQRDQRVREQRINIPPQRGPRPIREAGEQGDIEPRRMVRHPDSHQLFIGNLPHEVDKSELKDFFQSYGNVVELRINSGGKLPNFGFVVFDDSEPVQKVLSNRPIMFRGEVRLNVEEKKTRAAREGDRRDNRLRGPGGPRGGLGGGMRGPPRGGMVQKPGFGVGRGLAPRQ
The protocol: as §1, §2

For a further experiment, the target named is T5, HNRNPK (human, UniProt P61978-3 1-440, limits assumed).
T5 construct: also called NP_001305115.1 (+1)
The protocol:
as §1, §2

The target in another experiment is T6, GGCT (human, UniProt O75223 1-188).
T6 construct: also called NP_076956.1
T6 sequence (looked up): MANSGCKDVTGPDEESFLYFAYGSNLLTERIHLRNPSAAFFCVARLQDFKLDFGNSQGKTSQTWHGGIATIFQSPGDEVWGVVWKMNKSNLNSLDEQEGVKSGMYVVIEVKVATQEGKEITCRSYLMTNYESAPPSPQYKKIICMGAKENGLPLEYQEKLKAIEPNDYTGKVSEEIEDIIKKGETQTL
Here is the method: as §1, §2

The next experiment addresses T7, HUWE1 (human, UniProt Q7Z6Z7 1-4374).
T7 construct: also called NP_113584.3 (+11)
Here is the method:
as §1, §2

For another experiment, the target named is T8, ATXN2 (human, UniProt Q99700 1-1313).
T8 construct: also called NP_002964.3
Here is the method: as §1, §2

T7 sequence (Q7Z6Z7 whole entry): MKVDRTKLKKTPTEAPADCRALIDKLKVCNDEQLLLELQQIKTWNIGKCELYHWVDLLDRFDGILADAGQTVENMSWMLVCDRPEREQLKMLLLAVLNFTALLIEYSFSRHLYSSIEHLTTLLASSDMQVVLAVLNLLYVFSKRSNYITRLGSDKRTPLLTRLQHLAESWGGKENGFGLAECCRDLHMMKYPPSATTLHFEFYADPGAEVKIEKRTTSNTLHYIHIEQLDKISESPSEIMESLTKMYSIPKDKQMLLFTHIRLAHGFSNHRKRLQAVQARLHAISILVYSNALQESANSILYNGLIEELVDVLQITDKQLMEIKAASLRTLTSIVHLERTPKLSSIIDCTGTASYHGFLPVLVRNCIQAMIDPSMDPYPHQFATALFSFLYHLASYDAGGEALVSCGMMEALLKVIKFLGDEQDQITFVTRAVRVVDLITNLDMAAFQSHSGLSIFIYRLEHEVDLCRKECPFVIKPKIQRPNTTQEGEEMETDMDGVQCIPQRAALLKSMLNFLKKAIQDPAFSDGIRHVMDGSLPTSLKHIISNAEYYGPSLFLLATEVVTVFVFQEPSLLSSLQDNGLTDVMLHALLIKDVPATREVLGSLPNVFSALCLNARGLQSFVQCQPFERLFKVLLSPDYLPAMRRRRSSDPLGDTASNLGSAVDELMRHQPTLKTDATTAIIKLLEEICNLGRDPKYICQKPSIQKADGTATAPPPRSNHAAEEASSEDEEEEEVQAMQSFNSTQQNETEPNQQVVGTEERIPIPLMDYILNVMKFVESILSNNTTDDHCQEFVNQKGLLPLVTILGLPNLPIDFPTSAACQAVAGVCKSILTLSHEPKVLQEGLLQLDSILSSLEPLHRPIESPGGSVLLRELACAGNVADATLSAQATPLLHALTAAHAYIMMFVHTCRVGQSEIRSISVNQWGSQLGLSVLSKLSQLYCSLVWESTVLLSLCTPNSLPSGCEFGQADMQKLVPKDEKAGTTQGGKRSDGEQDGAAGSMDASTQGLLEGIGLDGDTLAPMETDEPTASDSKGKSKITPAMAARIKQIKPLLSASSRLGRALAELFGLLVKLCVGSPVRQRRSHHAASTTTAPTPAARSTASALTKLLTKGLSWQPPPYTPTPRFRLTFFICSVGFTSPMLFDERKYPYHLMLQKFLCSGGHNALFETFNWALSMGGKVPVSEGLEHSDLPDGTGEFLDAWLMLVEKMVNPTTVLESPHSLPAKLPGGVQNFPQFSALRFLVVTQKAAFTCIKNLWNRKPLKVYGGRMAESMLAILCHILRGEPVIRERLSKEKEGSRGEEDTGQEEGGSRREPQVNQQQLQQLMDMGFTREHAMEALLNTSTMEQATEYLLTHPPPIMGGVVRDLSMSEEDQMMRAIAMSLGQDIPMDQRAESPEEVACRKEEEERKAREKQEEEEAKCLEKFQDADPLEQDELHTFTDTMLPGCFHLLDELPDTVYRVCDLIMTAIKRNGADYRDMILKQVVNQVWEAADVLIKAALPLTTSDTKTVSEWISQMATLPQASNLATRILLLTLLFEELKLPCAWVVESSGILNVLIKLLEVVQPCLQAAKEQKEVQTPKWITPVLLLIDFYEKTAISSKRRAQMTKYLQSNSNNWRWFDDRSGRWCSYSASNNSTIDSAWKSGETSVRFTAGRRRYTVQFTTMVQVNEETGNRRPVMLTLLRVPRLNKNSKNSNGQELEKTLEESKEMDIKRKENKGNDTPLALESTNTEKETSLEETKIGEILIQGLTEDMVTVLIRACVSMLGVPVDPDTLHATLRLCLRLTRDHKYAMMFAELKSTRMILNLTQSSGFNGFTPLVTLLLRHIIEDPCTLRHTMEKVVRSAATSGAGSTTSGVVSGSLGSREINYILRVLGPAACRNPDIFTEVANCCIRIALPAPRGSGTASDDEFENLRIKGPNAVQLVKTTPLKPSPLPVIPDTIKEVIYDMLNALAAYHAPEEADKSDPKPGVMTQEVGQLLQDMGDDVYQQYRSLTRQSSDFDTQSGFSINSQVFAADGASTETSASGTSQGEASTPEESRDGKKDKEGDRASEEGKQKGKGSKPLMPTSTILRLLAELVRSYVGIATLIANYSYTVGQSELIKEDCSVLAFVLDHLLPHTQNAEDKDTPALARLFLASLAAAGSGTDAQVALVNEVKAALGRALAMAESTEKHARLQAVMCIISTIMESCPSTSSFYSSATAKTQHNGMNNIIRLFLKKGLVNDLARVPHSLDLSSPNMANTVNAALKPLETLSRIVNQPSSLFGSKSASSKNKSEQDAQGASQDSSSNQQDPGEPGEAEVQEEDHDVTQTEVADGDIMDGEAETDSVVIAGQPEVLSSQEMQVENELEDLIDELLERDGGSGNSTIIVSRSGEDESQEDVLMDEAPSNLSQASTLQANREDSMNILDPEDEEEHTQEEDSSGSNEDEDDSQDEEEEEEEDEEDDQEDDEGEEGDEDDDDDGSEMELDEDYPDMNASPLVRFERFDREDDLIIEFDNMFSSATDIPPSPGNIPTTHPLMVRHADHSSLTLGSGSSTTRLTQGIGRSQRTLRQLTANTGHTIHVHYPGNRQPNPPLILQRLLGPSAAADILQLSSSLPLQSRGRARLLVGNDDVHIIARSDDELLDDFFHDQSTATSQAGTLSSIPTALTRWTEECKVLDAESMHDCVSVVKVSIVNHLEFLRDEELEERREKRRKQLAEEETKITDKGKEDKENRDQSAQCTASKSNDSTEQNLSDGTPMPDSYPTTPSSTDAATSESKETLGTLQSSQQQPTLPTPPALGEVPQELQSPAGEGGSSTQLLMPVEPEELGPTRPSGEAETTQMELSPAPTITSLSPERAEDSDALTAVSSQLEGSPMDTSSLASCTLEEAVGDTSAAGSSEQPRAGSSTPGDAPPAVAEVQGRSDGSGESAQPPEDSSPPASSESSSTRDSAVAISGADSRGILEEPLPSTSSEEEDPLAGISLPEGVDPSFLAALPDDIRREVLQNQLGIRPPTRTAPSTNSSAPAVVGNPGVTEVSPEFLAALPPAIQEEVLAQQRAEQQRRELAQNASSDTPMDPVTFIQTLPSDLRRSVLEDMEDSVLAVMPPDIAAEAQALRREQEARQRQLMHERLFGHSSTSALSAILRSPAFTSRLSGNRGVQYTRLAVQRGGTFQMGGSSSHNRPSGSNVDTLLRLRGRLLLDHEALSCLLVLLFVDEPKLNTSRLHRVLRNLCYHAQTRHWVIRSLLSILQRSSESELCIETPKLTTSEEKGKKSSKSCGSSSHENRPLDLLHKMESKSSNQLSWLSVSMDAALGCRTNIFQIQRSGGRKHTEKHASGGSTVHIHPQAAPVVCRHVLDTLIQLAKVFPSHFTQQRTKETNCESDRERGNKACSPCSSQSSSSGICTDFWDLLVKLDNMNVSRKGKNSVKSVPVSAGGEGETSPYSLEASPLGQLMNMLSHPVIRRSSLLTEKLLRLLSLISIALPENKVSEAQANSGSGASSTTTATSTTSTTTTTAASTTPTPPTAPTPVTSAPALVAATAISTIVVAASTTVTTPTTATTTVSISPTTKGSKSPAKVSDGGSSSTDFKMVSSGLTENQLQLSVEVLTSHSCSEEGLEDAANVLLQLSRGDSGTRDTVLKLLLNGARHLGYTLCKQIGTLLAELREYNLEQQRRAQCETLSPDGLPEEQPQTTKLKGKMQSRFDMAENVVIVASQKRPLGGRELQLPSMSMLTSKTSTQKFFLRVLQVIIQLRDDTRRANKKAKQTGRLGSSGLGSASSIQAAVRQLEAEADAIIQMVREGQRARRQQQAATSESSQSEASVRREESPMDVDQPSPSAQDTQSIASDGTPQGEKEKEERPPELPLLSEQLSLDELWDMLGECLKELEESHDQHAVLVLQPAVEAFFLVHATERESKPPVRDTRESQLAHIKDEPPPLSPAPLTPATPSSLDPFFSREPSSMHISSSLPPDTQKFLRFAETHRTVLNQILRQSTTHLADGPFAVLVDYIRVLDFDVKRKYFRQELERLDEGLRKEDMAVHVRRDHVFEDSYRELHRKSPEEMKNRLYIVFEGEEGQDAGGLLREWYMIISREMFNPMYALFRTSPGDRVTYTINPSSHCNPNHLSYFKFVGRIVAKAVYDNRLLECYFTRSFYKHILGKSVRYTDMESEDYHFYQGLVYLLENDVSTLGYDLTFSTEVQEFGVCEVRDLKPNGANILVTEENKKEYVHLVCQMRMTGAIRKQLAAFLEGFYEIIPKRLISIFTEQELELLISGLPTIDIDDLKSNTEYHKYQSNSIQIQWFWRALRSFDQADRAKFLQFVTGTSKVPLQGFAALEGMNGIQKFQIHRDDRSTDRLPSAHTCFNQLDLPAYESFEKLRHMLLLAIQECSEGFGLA

B1: C-terminal FLAG tagged B3GNT2 (enzyme, human, UniProt Q9NY97 1-397, looked up)
chain: MSVGRRRIKLLGILMMANVFIYFIMEVSKSSSQEKNGKGEVIIPKEKFWKISTPPEAYWNREQEKLNRQYNPILSMLTNQTGEAGRLSNISHLNYCEPDLRVTSVVTGFNNLPDRFKDFLLYLRCRNYSLLIDQPDKCAKKPFLLLAIKSLTPHFARRQAIRESWGQESNAGNQTVVRVFLLGQTPPEDNHPDLSDMLKFESEKHQDILMWNYRDTFFNLSLKEVLFLRWVSTSCPDTEFVFKGDDDVFVNTHHILNYLNSLSKTKAKDLFIGDVIHNAGPHRDKKLKYYIPEVVYSGLYPPYAGGGGFLYSGHLALRLYHITDQVHLYPIDDVYTGMCLQKLGLVPEKHKGFRTFDIEEKNKNNICSYVDLMLVHSRKPQEMIDIWSQLQSAHLKC
notes: Overexpressed in cells and pulled down from the lysate with mouse anti-FLAG antibody; also called C-FLAG B3GNT2; C-term flag; not shown: C-terminal FLAG tag
With B1, the “co-IP mass spectrometry count” value in the experiment with CAT worked out at 0; in the experiment with RPS3, 23; in the experiment with C1orf68, 2; with LMNA it was 22; in the experiment with G3BP1, 33; with HNRNPK, 12. Besides, the “co-IP mass spectrometry count” value with GGCT stood at 0; with HUWE1, 0; in the experiment with ATXN2 it was 3.

The record behind these values is US20240261333A1 (published 2024).
